These results are taken from article PMC5159797, “Phosphorylation of SKAP by GSK3β ensures chromosome segregation by a temporal inhibition of Kif2b activity” (Scientific Reports, 2016).

This experiment concerns the target T1, His-GSK3β (human, UniProt P49841 1-420).
T1 construct: GSK3β; the construct is not described further; The pull-down methods speak of His-tagged fusion proteins expressed in bacterial cells, the protein methods of insect cells; also called 6×His-GSK3β; His-tagged GSK3β; source: insect cells, purified (Ni-NTA agarose)
The experiment is described as follows: pull-down; GST fusion protein-bound sepharose beads incubated 2 h at 4 °C with purified MBP fusion proteins or His-tagged protein; PBS, 0.1% Triton X-100; anti-MBP or anti-His blot. Particulars: both partners purified.

T1 sequence (P49841 whole entry, the tested form may be a part): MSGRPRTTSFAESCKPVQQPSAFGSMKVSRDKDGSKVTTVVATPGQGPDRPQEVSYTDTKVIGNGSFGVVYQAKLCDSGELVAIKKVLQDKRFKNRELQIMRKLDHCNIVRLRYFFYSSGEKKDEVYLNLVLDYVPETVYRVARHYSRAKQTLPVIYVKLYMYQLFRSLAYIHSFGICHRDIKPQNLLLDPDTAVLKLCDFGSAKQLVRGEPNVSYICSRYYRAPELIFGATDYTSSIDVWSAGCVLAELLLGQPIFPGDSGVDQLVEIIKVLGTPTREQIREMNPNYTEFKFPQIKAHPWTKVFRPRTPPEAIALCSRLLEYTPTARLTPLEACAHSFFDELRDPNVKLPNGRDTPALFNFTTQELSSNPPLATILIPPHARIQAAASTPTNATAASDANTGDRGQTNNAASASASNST

B1: GST-SKAP (natural protein, UniProt Q9Y448 1-316, looked up)
chain: MAAPEAPPLDRVFRTTWLSTECDSHPLPPSYRKFLFETQAADLAGGTTVAAGNLLNESEKDCGQDRRAPGVQPCRLVTMTSVVKTVYSLQPPSALSGGQPADTQTRATSKSLLPVRSKEVDVSKQLHSGGPENDVTKITKLRRENGQMKATDTATRRNVRKGYKPLSKQKSEEELKDKNQLLEAVNKQLHQKLTETQGELKDLTQKVELLEKFRDNCLAILESKGLDPALGSETLASRQESTTDHMDSMLLLETLQEELKLFNETAKKQMEELQALKVKLEMKEERVRFLEQQTLCNNQVNDLTTALKEMEQLLEM
notes: SKAP (small kinetochore-associated protein), full length, cloned into pGEX-5X-3; also called GST-tagged SKAP full length; GST-SKAP-WT; source: E. coli Rosetta (DE3), purified on glutathione-sepharose 4B
Consider B1, for which the binding result is on record as “binds”.
